# Assays:
# Test in all cases: IEDB peptide-MHC binding, purified MHC/competitive/fluorescence; filed as Kd, often an IC50 or EC50 that approximates it; ≥ and ≤ were set here for values at or beyond the usual limits of such assays
# Details in all cases: source organism: Entamoeba histolytica HM-1:IMSS
# HLA-B*53:01 = biological target: HLA-B*53:01
# HLA-A*03:01 = biological target: HLA-A*03:01
# HLA-B*44:02 = biological target: HLA-B*44:02
# HLA-B*58:01 = biological target: HLA-B*58:01
# HLA-B*07:02 = biological target: HLA-B*07:02
# HLA-A*02:19 = biological target: HLA-A*02:19
# HLA-B*51:01 = biological target: HLA-B*51:01
# HLA-A*11:01 = biological target: HLA-A*11:01
# HLA-A*01:01 = biological target: HLA-A*01:01
# HLA-B*46:01 = biological target: HLA-B*46:01
# HLA-B*57:01 = biological target: HLA-B*57:01
# HLA-A*02:12 = biological target: HLA-A*02:12
# HLA-B*15:17 = biological target: HLA-B*15:17
# HLA-A*02:16 = biological target: HLA-A*02:16
# HLA-A*30:01 = biological target: HLA-A*30:01
# HLA-A*66:01 = biological target: HLA-A*66:01
# HLA-A*02:03 = biological target: HLA-A*02:03
# HLA-B*14:02 = biological target: HLA-B*14:02
# HLA-B*27:05 = biological target: HLA-B*27:05
# HLA-A*02:11 = biological target: HLA-A*02:11
# HLA-B*27:03 = biological target: HLA-B*27:03
# HLA-B*39:01 = biological target: HLA-B*39:01
# HLA-B*08:01 = biological target: HLA-B*08:01
# HLA-A*02:01 = biological target: HLA-A*02:01
sequence,measurement,setting,value
EVRKAIEFV,Kd,HLA-B*53:01,≥ 5 µM
same,Kd,HLA-A*03:01,≥ 20 µM
same,Kd,HLA-B*44:02,≥ 5 µM
same,Kd,HLA-B*58:01,≥ 5 µM
same,Kd,HLA-B*07:02,≥ 5 µM
same,Kd,HLA-A*02:19,≥ 20 µM
same,Kd,HLA-B*51:01,≥ 20 µM
same,Kd,HLA-A*11:01,≥ 5 µM
same,Kd,HLA-A*01:01,≥ 5 µM
same,Kd,HLA-B*46:01,≥ 20 µM
same,Kd,HLA-B*57:01,≥ 20 µM
same,Kd,HLA-A*02:12,≥ 20 µM
same,Kd,HLA-B*15:17,≥ 20 µM
same,Kd,HLA-A*02:16,≥ 20 µM
same,Kd,HLA-A*30:01,≥ 5 µM
same,Kd,HLA-A*66:01,0.279 µM
same,Kd,HLA-A*02:03,≥ 20 µM
same,Kd,HLA-B*14:02,≥ 5 µM
same,Kd,HLA-B*27:05,≥ 5 µM
same,Kd,HLA-A*02:11,≥ 20 µM
same,Kd,HLA-B*27:03,≥ 20 µM
same,Kd,HLA-B*39:01,≥ 20 µM
same,Kd,HLA-B*08:01,≥ 5 µM
same,Kd,HLA-A*02:01,≥ 20 µM

# Source: the Immune Epitope Database (IEDB)
